In this series the target is UvsX recombinase (bacteriophage T4, UniProt P04529 1-391). Put plainly: fluorescence quenching; no nucleotide cofactor; 20 mM Tris-HCl pH 7.4, 50 mM NaCl, 3 mM MgCl2, 25 C; DNA in nucleotides or base pairs; quadratic fit with 4 nt (bp) site size. To be noted: protein: recombinant; tags: none stated (pET27b, E. coli BL21(DE3)); label: AlexaFluor 546 on X (position 23); single strand.
UvsX recombinase, sequence (P04529 whole entry): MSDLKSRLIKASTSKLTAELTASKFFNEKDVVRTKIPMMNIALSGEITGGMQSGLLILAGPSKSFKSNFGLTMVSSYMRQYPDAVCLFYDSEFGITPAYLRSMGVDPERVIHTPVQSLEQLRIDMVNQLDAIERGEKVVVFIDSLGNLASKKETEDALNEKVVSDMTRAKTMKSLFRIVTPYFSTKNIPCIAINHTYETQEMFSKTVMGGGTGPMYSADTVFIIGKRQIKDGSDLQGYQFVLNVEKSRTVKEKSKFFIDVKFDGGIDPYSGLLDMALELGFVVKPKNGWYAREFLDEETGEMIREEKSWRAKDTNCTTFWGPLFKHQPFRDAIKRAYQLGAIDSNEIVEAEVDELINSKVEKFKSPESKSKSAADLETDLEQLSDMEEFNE

B1: dT22XT2 ssDNA (ssDNA)
DNA: TTTTTTTTTTTTTTTTTTTTTTTTT
modifications: X at position 23 = amino-modifier C2 dT
As to B1, the binding result is given as “binds”.

Values taken from article PMC3688935, “Coordinated Binding of Single-Stranded and Double-Stranded DNA by UvsX Recombinase”.
